Changes are numbered by the printed parent chain. Numbers in names are those of the source.
B1: Her2/Hel bispecific antibody, Combination 1 in Table 3 / Table 9 / Table 10 (anti-Her2: Q39K, F126C, C220S / Q38D, Q124C, C214S; anti-Hel: Q39D / Q38K) (bispecific antibody, human IgG1, kappa, L234A L235A)
heavy 1: not shown
light 1: not shown
heavy 2: EVRLLESGGGLVQPGGSLRLSCAASGFTFSNYAMGWVRDAPGKGLEWVSAISGSGGSTYYADSVKGRFTTSRDDSKNALYLQMNSLRAEDTAVYYCARGGPGWYAADVWGQGTTVTVSSASTKGPSVFPLAPSSKSTSGGTAALGCLVKDYFPEPVTVSWNSGALTSGVHTFPAVLQSSGLYSLSSVVTVPSSSLGTQTYICNVNHKPSNTKVDKKVEPKSCDKTHTCPPCPAPEAAGGPSVFLFPPKPKDTLMISRTPEVTCVVVDVSHEDPEVKFNWYVDGVEVHNAKTKPREEQYNSTYRVVSVLTVLHQDWLNGKEYKCKVSNKALPAPIEKTISKAKGQPREPQVCTLPPSRDELTKNQVSLSCAVKGFYPSDIAVEWESNGQPENNYKTTPPVLDSDGSFFLVSKLTVDKSRWQQGNVFSCSVMHEALHNHYTQKSLSLSPGK
light 2: DIQMTQSPSSLSASVGDRVTITCRASQSISSYLNWYQKKPGKAPKLLIYAASSLQSGVPSRFSGSGSGTDFTLTISSLQPEDFATYYCQQADLPAFAFGGGTKVEIKRTVAAPSVFIFPPSDEQLKSGTASVVCLLNNFYPREAKVQWKVDNALQSGNSQESVTEQDSKDSTYSLSSTLTLSKADYEKHKVYACEVTHQGLSSPVTKSFNRGEC
B2: Her2/Hel bispecific antibody, Combination 4 in Table 3 / Table 9 / Table 10 (anti-Her2: Y91K, F126C, C220S / A43D, Q124C, C214S; anti-Hel: Y91D / A43K) (bispecific antibody, human IgG1, kappa, L234A L235A)
heavy 1: not shown
light 1: not shown
heavy 2: B1 heavy 2 with D39Q, Y95D
light 2: B1 light 2 with K38Q, A43K
B3: Her2/Hel bispecific antibody, Combination 3 in Table 3 / Table 9 / Table 10 (anti-Her2: L45K, F126C, C220S / P44D, Q124C, C214S; anti-Hel: L45D / P44K) (bispecific antibody, human IgG1, kappa, L234A L235A)
heavy 1: not shown
light 1: not shown
heavy 2: B1 heavy 2 with D39Q, L45D
light 2: B1 light 2 with K38Q, P44K
B4: Her2/Hel bispecific antibody, Combination 2 in Table 3 / Table 9 / Table 10 (anti-Her2: L45K, F126C, C220S / Y87D, Q124C, C214S; anti-Hel: L45D / Y87K) (bispecific antibody)
heavy 1: not shown
light 1: not shown
heavy 2: B1 heavy 2 with D39Q, L45D
light 2: B1 light 2 with K38Q, Y87K
B5: Her2/Hel bispecific antibody, Combination 5 in Table 3 / Table 9 / Table 10 (anti-Her2: Y91K, F126C, C220S / P44D, Q124C, C214S; anti-Hel: Y91D / P44K) (bispecific antibody, human IgG1, kappa, L234A L235A)
heavy 1: not shown
light 1: not shown
heavy 2: B1 heavy 2 with D39Q, Y95D
light 2: B1 light 2 with K38Q, P44K

What follows are binders tested against T1, Human Her2 (Human, UniProt P04626 23-652) (assay: BLI (ForteBio), antibody loaded on ProA sensors, antigen fusion protein in solution, 30 degrees).
T1 construct: also called antigen Her2
Experimental: Biolayer Interferometry (BLI) technology was used to test the equilibration dissociation constant (KD) of bispecific antibody binding to the respective antigens in the present disclosure. The BLI method affinity test was performed using an existing method (Estep, P et al., High throughput solution Based measurement of antibody-antigen affinity and epitope binning. MAbs, 2013.5 (2): Pages 270-8).
Half an hour before the start of the experiment, a suitable number of ProA (ForteBio, 18-5010) sensors based on the sample size were soaked in SD buffer (PBS 1×, BSA 0.1%, Tween-20 0.05%). 100 μL of SD buffer and antigen fusion protein were taken and added to a 96-well black polystyrene half-area microplate (Greiner, 675076), respectively. The sensor position was selected based on the sample position and layout. The instrument setting parameters are as follows: Run steps: Baseline, Loading ˜1 nm, Baseline, Association and Dissociation; the run time of each step depended on the sample binding and dissociation rate, and the rotational speed was 400 rpm and temperature was 30 degrees. ForteBio analysis software was used to analysis the KD value.

Kd [nM] | koff [s⁻¹] | kon [M⁻¹ s⁻¹] | Binder
0.805 | 0.0002 | 249000 | B1
0.764 | 0.0002 | 262000 | B2
0.758 | 0.0002 | 264000 | B3
0.748 | 0.0002 | 268000 | B4
0.72 | 0.0002 | 278000 | B5

— patent US20260062490A1 (Innovent, published 2026)
